# Legend:
# Format in all cases: biochemical, Oryza sativa
# [1] = substrate: CC(C)=CCC/C(C)=C/CC/C(C)=C/CC/C(C)=C/C=C\C=C(/C)CC/C=C(\C)CC/C=C(\C)CCC=C(C)C; assay: Michaelis-Menten kinetics of purified enzyme in liposome assay (KM), HPLC; details: FAD hydrophobic substrate cavity, C11-C12 near the flavin
# [2] = substrate: CC(C)=CCC/C(C)=C/CC\C(C)=C/C=C/C(C)=C/C=C\C=C(/C)CC/C=C(\C)CC/C=C(\C)CCC=C(C)C; assay: as above; details: FAD competes with phytoene at the active site
# [3] = substrate: CCCCCCCCCCC1=CC(=O)C(C)=C(C)C1=O; assay: Michaelis-Menten kinetics of purified enzyme in liposome assay (KM); details: FAD electron acceptor; same substrate cavity as the carotene, successively occupied, near the FAD
# [4] = substrate: CC(C)=CCC/C(C)=C/CC/C(C)=C/CC/C(C)=C/C=C\C=C(/C)CC/C=C(\C)CC/C=C(\C)CCC=C(C)C; assay: Michaelis-Menten kinetics of purified mutant in liposome assay (KM); details: FAD hydrophobic substrate cavity
# [5] = substrate: CCCCCCCCCCC1=CC(=O)C(C)=C(C)C1=O; assay: as above; details: FAD electron acceptor; same substrate cavity as the carotene
Protein,Km [1] [mM],Km [2] [mM],Km [3] [mM],Km [4] [mM],Km [5] [mM]
Phytoene desaturase (OsPDS-His6) (Oryza sativa Indica Group) (protein) AGQLSSFFRNSEQPTKPLQVVIAGAGLAGLSTAKYLADAGHKPILLEARDVLGGKIAAWKDEDGDWYETGLHIFFGAYPNIQNLFGELGINDRLQWKEHSMIFAMPNKPGEFSRFDFPETLPAPLNGIWAILRNNEMLTWPEKVKFALGLLPAMVGGQAYVEAQDGFTVSEWMKKQGVPDRVNDEVFIAMSKALNFINPDELSMQCILIALNRFLQEKHGSKMAFLDGNPPERLCMPIVDHVRSLGGEVRLNSRIQKIELNPDGTVKHFALTDGTQITGDAYVFATPVDILKLLVPQEWKEISYFKKLEKLVGVPVINVHIWFDRKLKNTYDHLLFSRSSLLSVYADMSVTCKEYYDPNRSMLELVFAPAEEWVGRSDTEIIEATMQELAKLFPDEIAADQSKAKILKYHVVKTPRSVYKTIPDCEPCRPLQRSPIEGFYLAGDYTKQKYLASMEGAVLSGKLCAQSVVEDYKMLSRRSLKSLQSEVPVAS,53.9 ± 18.1,66.8 ± 20.7,1.3 ± 0.2,–,–
Phytoene desaturase (OsPDS-His6) (Oryza sativa Indica Group; R300S) (protein) AGQLSSFFRNSEQPTKPLQVVIAGAGLAGLSTAKYLADAGHKPILLEARDVLGGKIAAWKDEDGDWYETGLHIFFGAYPNIQNLFGELGINDRLQWKEHSMIFAMPNKPGEFSRFDFPETLPAPLNGIWAILRNNEMLTWPEKVKFALGLLPAMVGGQAYVEAQDGFTVSEWMKKQGVPDRVNDEVFIAMSKALNFINPDELSMQCILIALNSFLQEKHGSKMAFLDGNPPERLCMPIVDHVRSLGGEVRLNSRIQKIELNPDGTVKHFALTDGTQITGDAYVFATPVDILKLLVPQEWKEISYFKKLEKLVGVPVINVHIWFDRKLKNTYDHLLFSRSSLLSVYADMSVTCKEYYDPNRSMLELVFAPAEEWVGRSDTEIIEATMQELAKLFPDEIAADQSKAKILKYHVVKTPRSVYKTIPDCEPCRPLQRSPIEGFYLAGDYTKQKYLASMEGAVLSGKLCAQSVVEDYKMLSRRSLKSLQSEVPVAS,–,–,–,4.5 ± 2.6,0.4 ± 0.1
